Literature values as cited in patent US20110110932A1, “COMBINATION TREATMENT FOR OCULAR DISEASES” (OPHTHOTECH CORP., priority 2009, published 2011).
Like-named read-outs stand apart in the source and are kept apart here.

How the values were obtained:
[1] = tested on: choroidal neovascularization (CNV); conditions: rabbits, CNV induced by VEGF/bFGF pellets
[2] = tested on: choroidal neovascularization (CNV); conditions: cynomolgus monkeys, laser induced CNV
α5β1 integrin = α5β1 integrin (Homo sapiens, UniProt P05556+P08648)
Sequence of α5β1 integrin (P08648 42-894 limits assumed): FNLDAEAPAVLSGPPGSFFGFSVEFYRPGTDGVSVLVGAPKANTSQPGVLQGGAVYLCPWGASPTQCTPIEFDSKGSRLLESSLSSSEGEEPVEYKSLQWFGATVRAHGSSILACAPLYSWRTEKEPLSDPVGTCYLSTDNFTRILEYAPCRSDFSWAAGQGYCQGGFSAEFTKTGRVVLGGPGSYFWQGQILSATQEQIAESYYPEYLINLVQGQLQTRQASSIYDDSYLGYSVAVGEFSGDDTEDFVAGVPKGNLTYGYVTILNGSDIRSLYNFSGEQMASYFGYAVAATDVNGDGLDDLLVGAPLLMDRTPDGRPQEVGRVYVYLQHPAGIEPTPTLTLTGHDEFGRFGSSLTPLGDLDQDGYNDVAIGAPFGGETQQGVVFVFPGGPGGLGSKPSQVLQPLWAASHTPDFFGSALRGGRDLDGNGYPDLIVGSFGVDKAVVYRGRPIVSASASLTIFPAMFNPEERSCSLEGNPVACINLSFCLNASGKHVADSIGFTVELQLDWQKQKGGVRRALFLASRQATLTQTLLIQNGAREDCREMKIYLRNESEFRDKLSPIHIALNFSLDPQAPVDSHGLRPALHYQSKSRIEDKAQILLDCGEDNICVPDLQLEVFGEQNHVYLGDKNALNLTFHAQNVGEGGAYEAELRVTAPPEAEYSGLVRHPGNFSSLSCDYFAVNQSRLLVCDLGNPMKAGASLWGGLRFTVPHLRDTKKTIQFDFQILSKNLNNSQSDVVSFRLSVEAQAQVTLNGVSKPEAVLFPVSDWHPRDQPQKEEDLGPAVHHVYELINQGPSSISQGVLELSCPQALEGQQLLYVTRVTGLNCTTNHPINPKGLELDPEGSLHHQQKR
Sequence of α5β1 integrin (P08648 895-1049 limits assumed): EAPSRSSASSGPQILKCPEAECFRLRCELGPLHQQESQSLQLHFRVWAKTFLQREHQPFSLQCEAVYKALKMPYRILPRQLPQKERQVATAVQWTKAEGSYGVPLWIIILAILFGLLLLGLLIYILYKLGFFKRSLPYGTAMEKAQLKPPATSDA
Sequence of α5β1 integrin (P05556 21-798): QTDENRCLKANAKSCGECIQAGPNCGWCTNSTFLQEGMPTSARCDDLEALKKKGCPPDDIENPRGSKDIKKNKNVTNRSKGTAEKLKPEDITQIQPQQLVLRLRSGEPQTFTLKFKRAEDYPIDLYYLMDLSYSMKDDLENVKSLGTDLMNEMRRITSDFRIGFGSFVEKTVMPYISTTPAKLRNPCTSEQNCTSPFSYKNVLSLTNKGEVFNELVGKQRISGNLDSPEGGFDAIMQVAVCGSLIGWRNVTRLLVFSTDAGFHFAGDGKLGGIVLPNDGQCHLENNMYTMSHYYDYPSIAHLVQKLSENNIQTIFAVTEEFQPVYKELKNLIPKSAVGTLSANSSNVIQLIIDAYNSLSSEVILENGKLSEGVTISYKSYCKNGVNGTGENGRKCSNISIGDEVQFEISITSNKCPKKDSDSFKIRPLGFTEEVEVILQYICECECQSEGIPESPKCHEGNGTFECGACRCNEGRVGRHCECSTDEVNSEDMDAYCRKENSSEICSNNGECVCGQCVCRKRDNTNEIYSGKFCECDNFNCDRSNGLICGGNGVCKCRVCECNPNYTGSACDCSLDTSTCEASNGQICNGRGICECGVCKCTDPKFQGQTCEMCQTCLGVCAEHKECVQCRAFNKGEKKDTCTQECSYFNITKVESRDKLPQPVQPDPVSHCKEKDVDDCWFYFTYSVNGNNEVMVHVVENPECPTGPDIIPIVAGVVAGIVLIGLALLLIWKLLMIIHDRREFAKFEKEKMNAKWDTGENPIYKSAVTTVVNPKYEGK

B1: F200: Fab fragment of volociximab; heavy chain SEQ ID NO: 6, light chain same as M200 (antibody, chains of the INN, looked up, V domains shown)
VH: QVQLKESGPGLVAPSQSLSITCTISGFSLTDYGVHWVRQPPGKGLEWLVVIWSDGSSTYNSALKSRMTIRKDNSKSQVFLIMNSLQTDDSAMYYCARHGTYYGMTTTGDALDYWGQGTSVTVSS
VL: QIVLTQSPAIMSASLGERVTMTCTASSSVSSNYLHWYQQKPGSAPNLWIYSTSNLASGVPARFSGSGSGTSYSLTISSMEAEDAATYYCHQYLRSPPTFGGGTKLEIK
modifications: Fab
anti-angiogenic activity [1]: significant anti-angiogenic activity
anti-angiogenic activity [2]: significant anti-angiogenic activity
α5β1 integrin antagonistic activity (α5β1 integrin): shown to have α5β1 integrin antagonistic activity
